Source: PMC3737563, “Investigation of DNA sequence recognition by a streptomycete MarR family transcriptional regulator through surface plasmon resonance and X-ray crystallography” (Nucleic Acids Research, 2013)

T1: SCO3205 (MarR family regulator) (Streptomyces coelicolor, UniProt Q9KYU1 1-163)
T1 sequence: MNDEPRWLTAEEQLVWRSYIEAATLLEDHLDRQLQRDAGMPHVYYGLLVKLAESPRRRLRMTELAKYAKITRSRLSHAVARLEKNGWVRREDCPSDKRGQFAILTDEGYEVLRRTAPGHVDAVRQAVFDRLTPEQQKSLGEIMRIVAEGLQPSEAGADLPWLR

B1: symmetrized O3204 22-mer (dsDNA)
DNA 1: AAAGATTGAGATCTCAATCTTT
DNA 2: AAAGATTGAGATCTCAATCTTT
B2: SCO3205, MarR family transcriptional regulator from Streptomyces coelicolor (natural protein, UniProt Q9KYU1 1-163, looked up)
chain: MNDEPRWLTAEEQLVWRSYIEAATLLEDHLDRQLQRDAGMPHVYYGLLVKLAESPRRRLRMTELAKYAKITRSRLSHAVARLEKNGWVRREDCPSDKRGQFAILTDEGYEVLRRTAPGHVDAVRQAVFDRLTPEQQKSLGEIMRIVAEGLQPSEAGADLPWLR
notes: SCO3205, MarR family transcriptional regulator, Streptomyces coelicolor; the tag was not removed for any experiment; Total deduced molecular mass 20523 Da; also called MFR; source: E. coli BL21 (DE3), purified (HisTrap nickel column, Superdex 75 gel filtration); not shown: His tag, N-terminal, kept

How the values were obtained:
[1] = molecular target: T1, SCO3205 (MarR family regulator); assay: crystal structure; 2.8 A; one dimer per duplex; SPR (ReDCaT, Biacore T200) in HBS-EP+: 10 mM HEPES pH 7.4, 150 mM NaCl, 3 mM EDTA, 0.05% P20, 20°C; conditions: protein: recombinant; tags: N-terminal His tag plus TEV site, not removed; chain copies: 2; blunt; self-complementary, 2 copies
[2] = molecular target: the molecule itself; assay: not stated; purified SCO3205 in solution; the method is told only in the Supplementary Methods

Binder | binding result [1] | stoichiometry N [2]
B1 | binds | 
B2 |  | 2
